Test: soluble fraction after stress (log2 fold change); higher = more stays soluble; pooled small domains, quantitative proteomics
Conditions: stress: 75 degC
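Note: 20 min heating vs room temperature control held 20 min.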

Sequence	soluble fraction (log2)
HMTSTEQEILIEHMVDRLPALRKKYGISQTELGEKIGLSRQTISAIERKTTPLTWTTMLAILMFFT	-1.82
HMTSTSVKYVNSSSGLNVRKGPSTSYDKVTTLVNGTKVTVISTNNGWSKITSGSITGYVSSQYLSSSS	-1.27
HMTSVAYVIDRINKIQNVYSELEALGLKDEFEKILSNIEDLSKKDIREIKTLLKTKGVIKNLDDLNVKL	0.762
HMTSVQDLLRNGDRVGYQNGSTVKYWLEEMGFHKKDLLGYVTVEEYAEALQRGSGNGGVSAIVD	-0.811
HMTTARERVYKTLQQWIVNGTLLPEERLNDVELARYFSVSRTPVREALQMLAEQKLVKMVPSSGTFVA	-1.44
HMTTELDTTAITPIIQKVLKANPDVVAKYKAGQQQVIGFLMGQVMRELSTKPNPKELQSLIVAQLQQA	-0.0252
HMTTGEIIQRERTRLGLSQEKLAEQVGVSRQAVSKWELGDAVPDTDKLVPLARTLGISVDTLLD	0.12
HMTTGGAEELGRTERKIVEQVGRGLSNREIAQVLGLSEGTVRNYLSTILGKLGLRDRTQLAIWSVQTGFAA	0.21
HMTTHERHEIIELLRQVGDPMRPKEISEALGKPSGAIRFLLSKLTEEGAIKKTGYGQYTYIP	-0.784
HMTTLTPIGKMKGEIDGDFEAFYLAVDKDGQVYLNRDPDYSENRYEKSRGWELVTREQLAVYEKELHFIP	-0.707
HMTTMYKSDVKGINYDVKAKSWFLRITFNGNQIPIGHFKTEEDAINVKQQLIPYIESKDYTSILAVKAKYS	-1.9
HMTTPDIIVPDVKGMTVAEAQKALEEKGFKVKLEEMTQEGAVPGDVIRIDPVAGTKRKEGAKITLLIARG	-0.0237
HMTTQTGTVKWFNEGKGFGFIAPDDGGKDLFAHFKEIQGTGFKTLAENQRVEFEVTQGQKGPQASKI	-0.0331
HMTTQTTKYVNTTAGLNVRTGPSTSYAKIVTLSYGQSVNVLSTSNGWSKINYNGSTGYVSSQYLQSTKPS	-2.28
HMTTSNPMNVTSAEAAFDNGTDRLNAFISGRTTSEERSTYFPLFVRETKEDFLRAVGRFNEYIANHG	0.055
HMTTTAGTAVVQTGNSGKLNLREQAYSNAGILGRYSNGTIVTVLQKGSAWSYVEVQGQKGYMMSKFLRFT	-2.75
HMTTTFGWENLVGEKGIAATDLHPSGWVTVKDQRVFVVSEGTFIEEGKEVEIMNVDGNRIVVREFKN	0.216
HMTTTPTSQMVTELRSRGWTLRALAQRLGVGHASINRWANGVTPDRDLVAALRALVASGEVP	-0.833
HMTTTYEINDEMLKPLILEIFNKSKQRFGSTKIAPVLKREGYTASIAKVKTLMNELGIKPVNA	-1.07
HMTTTYTVPKVTGMTLEEAREDPDVVGRFTIVEGEKVTSDTVPVGQIVSQEPAAHRQVGEDGLTITVNIS	0.634
HMTTVKDRVYEILKREIVLGKLKPGEPINIAVLSTKLNISSAPLREALNMLSRDGLVTLNPRKHAAVSE	-1.31
HMTTVRLNATVPPELALQRLDRVARELFPEYSRNRLQQWIRSGELLVNGSPSGVRDKVPLGAELAVAANLE	-0.657
HMTTVSINTTGIITASTIRASSALYPPLYTTVQRDAGTFSAGAIIFNSTTSKLEFYDGTTWQSLPG	-0.339
HMTTVTVGSKVRVKAGATFSDGAKPFAEVYNTVYDVQLLSHNGKEARIGIGDQWTGWIYISDLYLANQPAP	-1.84
HMTVEMYIGKTANVLETVTENNGRIAIFGEEWQAKSLNGETIEKGAQAKIVKNDSIIMYVVPI	-0.443
HMTVGENTYELIKKDIIFGVLPPLKKLKLQELKKIYNASVSTLREILSRLTGDGFVFSEEQKGFYVSPV	0.0263

Sequence	soluble fraction (log2)
HMTVKEVGYDTFLTMLDKKEIKQVQVEDNQIIFSDNADPVNYYKTGVFNDPDLVNRLQDAGVEFG	1.01
HMTVKEYNRAVDEYSDAVWRFIRGNLRDEDRANDIVQDSFEKLWMHVTEIDYSVAKSWLFSTAYNNMIDI	-0.707
HMTVKKLTINEDNSGRRIDNYLLSIFNSLPRSKIYNIIRKGEVRVNSSRIKPNYRLEQGDLVRIPPNLEFT	0.154
HMTVKRNLVQEILRLKFRHPENFMPNRAFYQEVGINQMRWWDIFYGRKNINQEEYIALSKYF	-0.353
HMTVLPTEQDAKALVGLGEEEAAKIVEGNGWTYRIGSRDGEQFMLTEDFVTSRLTLGIEKAIVMTATI	-0.906
HMTVLSKEEFVAIEQRLLQLLGTAPVDNKILLQQLSGIKKEKAWKVLSFLQAENKIGMDATGRVYL	-0.974
HMTVPDVKGMGARDAVFLLETLGFKVRINGIGQVYEQSIDPGKSYSKGEFISLRL	-0.699
HMTVPNVVGQRILAAQDILKNLGLKVLVDTNLPNSQWGLRNVKSTNPGAGAVVRVGDTVTLIAR	-0.441
HMTVPTEVALELMHATALEDNEQRILYIASFKEKHREHLHATIEVDGQEVTLARYADLVATGAYL	-2.56
HMTVSADIIQKIIKTSTTDENIITIDSISNSISKLALSKITAEDIIEILEASSLVLRNSNGSWTVL	-1.7
HMTVSKLKVINYTIRNGDSLWTISRKFNVTVDKVKEWNGLSDRTLLQPGQKLTLYVDPTIQISH	-1.82
HMTVSLLQTRQRLQALADLGHYKGDLGAAWGPDAIEALKKAQATLGVTVDGKWGPQTEDAIQVALKVQ	-0.237
HMTVTISPGYEGRLLRSYLKNTLSLSTSALARLKTREDGITVNGVRVTVRYVLHAGDLLQLAVD	-0.579
HMTVVHRQVHLQPDQGAFRAALYSHKAVLSEQTDDQGAINLEIRLPESDFLRLLNSSGLKLQDLVP	-0.427
HMTVVSVDDQASASSEAIRTKVAGDSAARMSVDAGGKITWGAGSASGDVTLYRSAANTLKTDDTLVAT	0.16
HMTYADTRDLLIRRGMELLTEQGIAATSIERVLQSTGIPKGSFYHYFATKHDFTLAVMDAYHHY	-0.157
HMTYAQQIGARIAFLRRLKGLTLAELAERVNKHKSTISKYESGQIIIDIESLKEVADALGVDVAQIVE	-1.26
HMTYFDIAPELLTVYKEINDIPRDINQIVRKTGLSINEVSYKTMILQLEDKIVELPGQRFIRNS	-2.46
HMTYKHLTIDEMKRFLSTREDSQSALVQFARVENVVGNRKGKYAVIKKWFLKNYKEEYNAFLS	0.0231
HMTYPGSIALVNPKHEAFVQHYVATSGSRGQAAKLAGVTTTTARNLLQDVEATARIRYLNAQQFQ	-0.12
HMTYTGTVTGVDEGGLRVRSSTSTENTSNVITKVYTGDTFDVLDTVYNGSAKWYKIGFTYNGTYTYGYVSA	-1.51
HMTYVSVSNYIGTNVDKAKGELESQGLVVLLEEQKTEDKSQDGMVLKQTIEGGTKVSSGSRITLIYGRYT	-0.0441
HMVADEGELLAIAREVVAANPKVFEDWKAGKQSAAQWFVGQIMKRTRGRANPQLALKLVTQALEEHAR	0.0384
HMVAEKSKIEMAIDSINKLAKELADSGVAKKTISDIIKSVSGSANYNKITDFEVATDVYKELVALKNKEDT	0.223
HMVAESGLPPAFRSTWRHIMQTRGAQLDVLAMRTGTDAASLQKQLHAMELGGWVRRMPGGWYVPLK	-1.78
HMVAFYATPKERGIYDDAETYREGDIVSIADGSRWIYVNPTATAGNDPADGSVYWERMSGAATGP	0.116

Sequence	soluble fraction (log2)
HMVAGHLQEKKGYFYMVLTYRDHEGKRKSKWLPTGLTIKGNKKRAQDLLQDARKNFVPDIPT	-2.37
HMVAGHLQEKNGYFYIVLNYTNHEGKRKSKWITTGLTVKGNKKRAQDLLQEARKTFVPDIPT	-2.88
HMVAPKDIVMPSFVGKKYTDVVNTPNSSYTFEFKKDEKNSSDYAVGFIMDQKPKAGETVKSNATVTLIVSK	0.0603
HMVAPNSEATTKLIIEKTKYANESPAILMGFKATATMLMAKHVVLPTSKYAYFNEGRALLEKAIK	0.154
HMVAREAYTTQNLTDVFSISRQAVEKRAKREGWQSVPRKGRGGGKLWVVSSMPAETRDLLASLLLRK	-0.608
HMVDALYGQGARVMRDFSEGSGIVKLDNGETWTGRLSPAASGASLYVGDRVIVTRIDGAIAEVTPP	0.00352
HMVDDNFGLGEVTDQNYLTVLGRALDLIGWTDEQADSYSLKTFGVPHWDELGRSQAEKLVAHLIGLLKEQM	0.0834
HMVDIEQAEFLSRQFDLLLARLDDPTIEWQDIADIRSEYTGENEHRDTIRKGSKLFYEYLQAGWIKN	-0.678
HMVDISLSDRELEVLRLLAMGLSNADISRRLYLSEGTIRNYMSGIFSKLNVSDRTQAVVIALREGLVNL	-1.56
HMVDPAEASKRAREYLDALPADDLKDVIRQFSATLAEGSVVLGYFQRSGLKSKVVKTALEQFVASTILSK	-1.16
HMVDPAFLAWQQKPENTWFGTDRRKTALAIAIAEEIRNDPANSNLVGAAFYARVAEETEETLN	-0.546
HMVDPWLEQVHRASAAYATAHGSARIPTTHPDLGWKVVRVRQRHRKGLLSDEWVAKFEALPGWTWEPK	-1.52
HMVDQAFQTQLKNIQARTGKNLDELYAFIRASGLVKHGEIRDLAKRELSLGHGDANTLAKFYLESLAAAA	0.0377
HMVDQKLIQASAEHSGIRIDRFLSEQLPEHSRSYIQKLIKDGQVSIGGKAVKSNYKIAGTEEISLLIPDQ	-0.0516
HMVDTSDLPAIVEKVFADNPEQVNDILNGKDRVKGFLVGQIMKATRGQAPPDEVNKLIDATLEKMKAA	0.239
HMVDYIGRRGVMLSTVSEEKMGNAEVVIDGNSYNIYVKSLDGSTIAYHQEILIINKSKDNNYFLVQIY	-2.81
HMVEAIDQALIEKQIQAVLQENSAAVKKYQAGKTEVLAFLIGQSMRKIAKKVDANLVKNILLEQLKNK	0.228
HMVEDFSEVLLQYIREQGGAIALNDKTDAGVIYDTFGVSKKTFKKAVGDLYKKRLIVLGDEGIRLA	-0.757
HMVEIGENIKKLRKAKRMTQKEVANQLNVTPQTISKWERNISYPDLDMLVKLSQLFHISTDALL	-0.553
HMVELNDNEKIVYDILKETEKIHIDELTAKVQLTQSILSGALVQMEMKGMIVSLPGKMYKLL	-1.65
HMVELRDGSLPLARGSVGDLVAEVQRKLGVAADGIFGPQTERAVRAFQARAGLASDGIVGPLTWSALFGA	-0.516
HMVELVKVPALQGETVDEAIADIKDAGLEPGQVRYVESDLPKDTVTYQSVDAGEQVKAGTVINLQASKGP	0.765
HMVEMSNMELVREQYFQNLIYNVGDWVKDSKTEITGEVVKRGTNYLTIVQEDFTLHKVWLEDAESME	-0.511
HMVEPDELTEREREVLQFVARGLSNKEIGAALALSPHTIKAHLRSILDKLHLRSRAEAAAWAVRSGLS	-0.344
HMVEPLIVRNFSINYADIDKLETKIKDYISNSDKSGVNRGRVTSDTRTNMLIVTETASKLAQVEQLLKALD	-0.279

Reference: the domain aggregation screens of Martell et al. (2025)
